The source of these data is patent US20240092919A1.

This test addresses human GPC3 on cells (human) (UniProt P51654). In words: cell-based or functional assay.

B1: A022600168 (protein)
chain: DVQLVESGGGVVQPGGSLRLSCVASGYVHKINFYGWYRQAPGKEREKVAHISIGDQTDYADSAKGRFTISRDESKNTVYLQMNSLRPEDTAAYYCRALSRIWPYDYWGQGTLVTVSSGGGGSEVQLVESGGGLVQPGGSLRLSCVASGFTFSSFAMTWVRRPPGKGLEWVATITNGGVTSYRDSVKGRFTISRDNAKNTLYLEMTSLNPEDTAVYICANARRTGPRAPTDIGSYRGQGTLVTVSSGGGGSGGGGSGGGGSGGGGSGGGGSGGGGSGGGGSEVQLVESGGGLVQPGGSLRLSCVASGSIFRSVFSSSTMEWYRQPPGKKRELVARIAPGDGTNYGALYADSVKGRFTISRDDAKKTVDLQMNSLKPEDTGVYFCASGVAWGQGTLVTVSSGGGGSGGGGSGGGGSGGGGSGGGGSGGGGSGGGGSEVQLVESGGGVVQPGGSLRLSCAASGFTFRSFGMSWVRQAPGKGPEWVSSISGSGSDTLYADSVKGRFTISRDNSKNTLYLQMNSLRPEDTALYYCTIGGSLSRSSQGTLVTVSSA
B1: the HepG2 on Incucyte IC50 (M), human TDC, E:T 15:1, 60 h came out at 3.67e-10 M; the HepG2 on Incucyte Max % killing, 60 h worked out at 103%; the Huh7 on xCELLigence IC50 (M), human TDC, E:T 15:1, 60 h is 1.98e-10 M; the Huh7 on xCELLigence Max % killing, 60 h was 107%. The same molecule displayed an IC50 (M), xCELLigence human TDC assay on Hep-G2, E:T 15:1, 60 h of 7.3e-11 M; an IC50 (M), xCELLigence human TDC assay on Huh-7, E:T 15:1, 60 h of 2.4e-11 M; an IC50 (M), xCELLigence human TDC assay on NCI-H661, E:T 15:1, 75 h of 1.4e-10 M.

B2: A022600172 (protein)
chain: DVQLVESGGGVVQPGGSLRLSCVASGYVHKINFYGWYRQAPGKEREKVAHISIGDQTDYADSAKGRFTISRDESKNTVYLQMNSLRPEDTAAYYCRALSRIWPYDYWGQGTLVTVSSGGGGSEVQLVESGGGLVQPGGSLRLSCVASGFTFSSFAMTWVRRPPGKGLEWVATITNGGVTSYRDSVKGRFTISRDNAKNTLYLEMTSLNPEDTAVYICANARRTGPRAPTDIGSYRGQGTLVTVSSGGGGSGGGSEVQLVESGGGVVQPGGSLRLSCAASGFTFRSFGMSWVRQAPGKGPEWVSSISGSGSDTLYADSVKGRFTISRDNSKNTLYLQMNSLRPEDTALYYCTIGGSLSRSSQGTLVTVSSGGGGSGGGSEVQLVESGGGLVQPGGSLRLSCVASGSIFRSVFSSSTMEWYRQPPGKKRELVARIAPGDGTNYGALYADSVKGRFTISRDDAKKTVDLQMNSLKPEDTGVYFCASGVAWGQGTLVTVSSA
B2 displayed a HepG2 on Incucyte IC50 (M), human TDC, E:T 15:1, 60 h of 6.01e-10 M; a HepG2 on Incucyte Max % killing, 60 h of 81%; a Huh7 on xCELLigence IC50 (M), human TDC, E:T 15:1, 60 h of 6.7e-11 M; a Huh7 on xCELLigence Max % killing, 60 h of 90%.

B3: A022600167 (protein)
chain: DVQLVESGGGVVQPGGSLRLSCVASGYVHKINFYGWYRQAPGKEREKVAHISIGDQTDYADSAKGRFTISRDESKNTVYLQMNSLRPEDTAAYYCRALSRIWPYDYWGQGTLVTVSSGGGGSEVQLVESGGGLVQPGGSLRLSCVASGFTFSSFAMTWVRRPPGKGLEWVATITNGGVTSYRDSVKGRFTISRDNAKNTLYLEMTSLNPEDTAVYICANARRTGPRAPTDIGSYRGQGTLVTVSSGGGGSGGGGSGGGGSGGGGSGGGGSGGGGSGGGGSEVQLVESGGGVVQPGGSLRLSCAASGFTFRSFGMSWVRQAPGKGPEWVSSISGSGSDTLYADSVKGRFTISRDNSKNTLYLQMNSLRPEDTALYYCTIGGSLSRSSQGTLVTVSSA
B3: the HepG2 on Incucyte IC50 (M), human TDC, E:T 15:1, 60 h was found to be 1.92e-09 M; the HepG2 on Incucyte Max % killing, 60 h is 98%; the Huh7 on xCELLigence IC50 (M), human TDC, E:T 15:1, 60 h stood at 8.61e-09 M; the Huh7 on xCELLigence Max % killing, 60 h stood at 91%. The molecule further came in with an IC50 (M), xCELLigence human TDC assay on Hep-G2, E:T 15:1, 60 h of 9.2e-11 M; an IC50 (M), xCELLigence human TDC assay on Huh-7, E:T 15:1, 60 h of 4.7e-10 M; an IC50 (M), xCELLigence human TDC assay on NCI-H661, E:T 15:1, 75 h of 1.8e-10 M.

B4: A022600179 (protein)
chain: DVQLVESGGGVVQPGGSLRLSCVASGYVHKINFYGWYRQAPGKEREKVAHISIGDQTDYADSAKGRFTISRDESKNTVYLQMNSLRPEDTAAYYCRALSRIWPYDYWGQGTLVTVSSGGGGSEVQLVESGGGLVQPGGSLRLSCVASGFTFSSFAMTWVRRPPGKGLEWVATITNGGVTSYRDSVKGRFTISRDNAKNTLYLEMTSLNPEDTAVYICANARRTGPRAPTDIGSYRGQGTLVTVSSGGGGSGGGSEVQLVESGGGVVQPGGSLRLSCAASGFTFRSFGMSWVRQAPGKGPEWVSSISGSGSDTLYADSVKGRFTISRDNSKNTLYLQMNSLRPEDTALYYCTIGGSLSRSSQGTLVTVSSA
The molecule B4 had a HepG2 on Incucyte IC50 (M), human TDC, E:T 15:1, 60 h of 2.92e-09 M; a HepG2 on Incucyte Max % killing, 60 h of 76%; a Huh7 on xCELLigence IC50 (M), human TDC, E:T 15:1, 60 h of 6.13e-09 M; a Huh7 on xCELLigence Max % killing, 60 h of 66%.

B5: A022600174 (protein)
chain: DVQLVESGGGVVQPGGSLRLSCVASGYVHKINFYGWYRQAPGKEREKVAHISIGDQTDYADSAKGRFTISRDESKNTVYLQMNSLRPEDTAAYYCRALSRIWPYDYWGQGTLVTVSSGGGGSEVQLVESGGGLVQPGGSLRLSCVASGFTFSSFAMTWVRRPPGKGLEWVATITNGGVTSYRDSVKGRFTISRDNAKNTLYLEMTSLNPEDTAVYICANARRTGPRAPTDIGSYRGQGTLVTVSSGGGGSGGGSEVQLVESGGGLVQPGGSLRLSCVASGSIFRSVFSSSTMEWYRQPPGKKRELVARIAPGDGTNYGALYADSVKGRFTISRDDAKKTVDLQMNSLKPEDTGVYFCASGVAWGQGTLVTVSSGGGGSGGGSEVQLVESGGGVVQPGGSLRLSCAASGFTFRSFGMSWVRQAPGKGPEWVSSISGSGSDTLYADSVKGRFTISRDNSKNTLYLQMNSLRPEDTALYYCTIGGSLSRSSQGTLVTVSSA
Molecule B5 had a HepG2 on Incucyte IC50 (M), human TDC, E:T 15:1, 60 h of 6.73e-10 M; a HepG2 on Incucyte Max % killing, 60 h of 96%; a Huh7 on xCELLigence IC50 (M), human TDC, E:T 15:1, 60 h of 6.26e-11 M; a Huh7 on xCELLigence Max % killing, 60 h of 99%.

B6: A022600170 (protein)
chain: DVQLVESGGGVVQPGGSLRLSCVASGYVHKINFYGWYRQAPGKEREKVAHISIGDQTDYADSAKGRFTISRDESKNTVYLQMNSLRPEDTAAYYCRALSRIWPYDYWGQGTLVTVSSGGGGSEVQLVESGGGLVQPGGSLRLSCVASGFTFSSFAMTWVRRPPGKGLEWVATITNGGVTSYRDSVKGRFTISRDNAKNTLYLEMTSLNPEDTAVYICANARRTGPRAPTDIGSYRGQGTLVTVSSGGGGSGGGGSGGGGSGGGGSGGGGSGGGGSGGGGSEVQLVESGGGLVQPGGSLRLSCVASGSIFRSVFSSSTMEWYRQPPGKKRELVARIAPGDGTNYGALYADSVKGRFTISRDDAKKTVDLQMNSLKPEDTGVYFCASGVAWGQGTLVTVSSGGGGSGGGSEVQLVESGGGVVQPGGSLRLSCAASGFTFRSFGMSWVRQAPGKGPEWVSSISGSGSDTLYADSVKGRFTISRDNSKNTLYLQMNSLRPEDTALYYCTIGGSLSRSSQGTLVTVSSA
Consider B6, for which the HepG2 on Incucyte IC50 (M), human TDC, E:T 15:1, 60 h amounted to 3.19e-10 M; the HepG2 on Incucyte Max % killing, 60 h came to 97%; the Huh7 on xCELLigence IC50 (M), human TDC, E:T 15:1, 60 h amounted to 1.86e-10 M; the Huh7 on xCELLigence Max % killing, 60 h is 103%.

B7: A022600175 (protein)
chain: DVQLVESGGGVVQPGGSLRLSCVASGYVHKINFYGWYRQAPGKEREKVAHISIGDQTDYADSAKGRFTISRDESKNTVYLQMNSLRPEDTAAYYCRALSRIWPYDYWGQGTLVTVSSGGGGSEVQLVESGGGLVQPGGSLRLSCVASGFTFSSFAMTWVRRPPGKGLEWVATITNGGVTSYRDSVKGRFTISRDNAKNTLYLEMTSLNPEDTAVYICANARRTGPRAPTDIGSYRGQGTLVTVSSGGGGSGGGSEVQLVESGGGLVQPGGSLRLSCVASGSIFRSVFSSSTMEWYRQPPGKKRELVARIAPGDGTNYGALYADSVKGRFTISRDDAKKTVDLQMNSLKPEDTGVYFCASGVAWGQGTLVTVSSGGGGSGGGGSGGGGSGGGGSGGGGSGGGGSGGGGSEVQLVESGGGVVQPGGSLRLSCAASGFTFRSFGMSWVRQAPGKGPEWVSSISGSGSDTLYADSVKGRFTISRDNSKNTLYLQMNSLRPEDTALYYCTIGGSLSRSSQGTLVTVSSA
B7: the HepG2 on Incucyte IC50 (M), human TDC, E:T 15:1, 60 h worked out at 5.27e-10 M; the HepG2 on Incucyte Max % killing, 60 h was found to be 96%; the Huh7 on xCELLigence IC50 (M), human TDC, E:T 15:1, 60 h is 5.86e-11 M; the Huh7 on xCELLigence Max % killing, 60 h came to 99%.

B8: A022600169 (protein)
chain: DVQLVESGGGLVQPGGSLRLSCVASGFTFSSFAMTWVRRPPGKGLEWVATITNGGVTSYRDSVKGRFTISRDNAKNTLYLEMTSLNPEDTAVYICANARRTGPRAPTDIGSYRGQGTLVTVSSGGGGSEVQLVESGGGVVQPGGSLRLSCVASGYVHKINFYGWYRQAPGKEREKVAHISIGDQTDYADSAKGRFTISRDESKNTVYLQMNSLRPEDTAAYYCRALSRIWPYDYWGQGTLVTVSSGGGGSEVQLVESGGGLVQPGGSLRLSCVASGSIFRSVFSSSTMEWYRQPPGKKRELVARIAPGDGTNYGALYADSVKGRFTISRDDAKKTVDLQMNSLKPEDTGVYFCASGVAWGQGTLVTVSSGGGGSGGGGSGGGGSGGGGSGGGGSGGGGSGGGGSEVQLVESGGGVVQPGGSLRLSCAASGFTFRSFGMSWVRQAPGKGPEWVSSISGSGSDTLYADSVKGRFTISRDNSKNTLYLQMNSLRPEDTALYYCTIGGSLSRSSQGTLVTVSSA
B8 gave a HepG2 on Incucyte IC50 (M), human TDC, E:T 15:1, 60 h of 6.41e-10 M; a HepG2 on Incucyte Max % killing, 60 h of 81%; a Huh7 on xCELLigence IC50 (M), human TDC, E:T 15:1, 60 h of 1.02e-09 M; a Huh7 on xCELLigence Max % killing, 60 h of 61%.

B9: A022600135 (protein)
chain: DVQLVESGGGVVQPGGSLRLSCVASGYVHKINFYGWYRQAPGKEREKVAHISIGDQTDYADSAKGRFTISRDESKNTVYLQMNSLRPEDTALYYCRALSRIWPYDYWGQGTLVTVSSGGGGSEVQLVESGGGLVQPGGSLRLSCVASGSIFRSVFSSSTMEWYRQPPGKKRELVARIAPGDGTNYGALYADSVKGRFTISRDDAKKTVDLQMNSLKPEDTGVYFCASGVAWGQGTLVTVSSGGGGSGGGSEVQLVESGGGLVQPGGSLRLSCVASGFTFSSFAMTWVRRPPGKGLEWVATITNGGVTSYRDSVKGRFTISRDNAKNTLYLEMTSLNPEDTAVYICANARRTGPRAPTDIGSYRGQGTLVTVSSGGGGSGGGGSGGGGSGGGGSGGGGSGGGGSGGGGSEVQLVESGGGVVQPGGSLRLSCAASGFTFRSFGMSWVRQAPGKGPEWVSSISGSGSDTLYADSVKGRFTISRDNSKNTLYLQMNSLRPEDTALYYCTIGGSLSRSSQGTLVTVSSA
B9 yielded an IC50 (M), Incucyte human TDC HepG2-Nuclight green assay, E:T 15:1 (Step 2) of 6.11e-10 M and a Max % Killing, Incucyte human TDC HepG2-Nuclight green assay (Step 2) of 91%.
